From patent publication US20090042209A1 (NOX TECHNOLOGIES, published 2009)

Biological target: T1, albumin (serum) (human, UniProt P02768 25-609)
T1 construct: Present in the serum sample on the 2-D blot; also called unreactive albumin
Test: 2-D gel electrophoresis immunoblot of pooled cancer sera, scFv with anti-S alkaline phosphatase detection
Text: FIG. 1 provides the results of analytical 2-D gel electrophoresis of ECTO-NOX enriched serum proteins from a preparation of sera pooled from cancer patients (breast, ovarian, lung and colon) concentrated by nickel agarose precipitation, followed by immunoblots analysis. Separation in the first dimension was by isoelectric focusing and in the second dimension by SDS-PAGE (using ampholytes over the pH range of 3 to 10 and 10% polyacrylamide gel). For interpretative purposes, the gel is divided into quadrants I-IV with unreactive albumin (albumin) at the center. Detection was with recombinant anti-tNOX single chain variable region (scFv) antibody (MAB 12.1 scFv) carrying an S-tag followed by alkaline phosphatase-liked anti S (Novagen cat. # 69598-3 or equivalent product) with Western Blue NBT substrate (Promega, Madison, Wis; Cat. No. S3841 or equivalent product). Reactive proteins appear reddish blue.

T1 sequence (P02768 25-609 limits assumed): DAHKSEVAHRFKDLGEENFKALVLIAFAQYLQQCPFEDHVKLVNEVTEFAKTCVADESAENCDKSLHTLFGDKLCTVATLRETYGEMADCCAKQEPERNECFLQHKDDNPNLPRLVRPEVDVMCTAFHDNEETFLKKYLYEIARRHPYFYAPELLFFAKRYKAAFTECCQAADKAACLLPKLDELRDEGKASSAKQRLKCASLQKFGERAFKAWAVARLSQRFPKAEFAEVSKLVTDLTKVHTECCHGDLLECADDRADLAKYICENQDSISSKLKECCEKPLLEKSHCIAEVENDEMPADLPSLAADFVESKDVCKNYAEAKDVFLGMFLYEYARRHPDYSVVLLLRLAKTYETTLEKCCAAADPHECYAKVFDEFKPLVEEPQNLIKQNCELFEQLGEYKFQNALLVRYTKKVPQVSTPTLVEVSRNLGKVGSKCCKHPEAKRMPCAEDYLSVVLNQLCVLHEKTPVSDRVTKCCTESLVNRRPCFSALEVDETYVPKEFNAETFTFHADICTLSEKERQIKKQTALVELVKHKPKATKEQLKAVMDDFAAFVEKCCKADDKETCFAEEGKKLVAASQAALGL

B1: recombinant anti-tNOX single chain variable region (scFv) antibody (MAB 12.1 scFv) carrying an S-tag (scFv)
scFv: EVKLQESGTEVVKPGASVKLSCKASGYIFTSYDIDWVRQTPEQGLEWIGWIFPGEGSTEYNEKFKGRATLSVDKSSSTAYMELTRLTSEDSAVYFCARGDYYRRYFDLWGQGTTVTVSSGGGGSGGGGSGGGGSENVLTQSPAIMSASPGERVTMTCSASSSIRYIYWYQQKPGSSPRLLIYDTSNVAPGVPFRFSGSGSGTSYSLTINRMEAEDAATYYCQEWSGYPYTFGGGTKLELKAKETAAAKFERQHMDS
notes: Expressed in E. coli from pET11-ScFv(S) and renatured from inclusion bodies; also called ScFv(S); NTI ScFv MAB 12.1
- binding result: no binding
